The target of experiment [1] is T1, cynomolgus monkey FcγRIIa1 extracellular domain with C-terminal His-tag (cynomolgus monkey).
T1 construct: Expressed in FreeStyle 293 cells and purified; also called cyno FcγRIIa1; cynoFcgRIIa1; not shown: C-terminal His-tag
T1 chain: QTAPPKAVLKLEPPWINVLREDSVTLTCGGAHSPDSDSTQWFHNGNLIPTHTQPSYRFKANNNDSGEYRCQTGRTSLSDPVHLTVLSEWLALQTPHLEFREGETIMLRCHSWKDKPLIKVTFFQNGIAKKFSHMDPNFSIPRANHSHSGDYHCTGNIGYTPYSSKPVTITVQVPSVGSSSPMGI
Briefly: SPR (Biacore); KD of SG1 divided by KD of the variant for this FcgR.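 Also: relative to parent M103205H795-SG1 carrying the SG1 human heavy chain constant region.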 On the procedure: (§1) The kinetic analysis of interactions between these antibodies and FcγR was carried out using BIACORE® T200 or BIACORE® 4000 (GE Healthcare). HBS-EP+ (GE Healthcare) was used as the running buffer, and the measurement temperature was set to 25° C. A chip produced by immobilizing Protein A. Protein A/G or mouse anti-human IgG kappa light chain (BD Biosciences) onto a Series S Sensor Chip CM4 or CM5 (GE Healthcare) by the amine-coupling method was used. […] After the measurement, the antibody captured on the chip was washed off by allowing reaction with 10 mM glycine-HCl, pH1.5 and 25 mM NaOH so that the chip was regenerated and used repeatedly. The sensorgrams obtained as measurement results were analyzed by the 1:1 Langmuir binding model using the BIACORE® Evaluation Software to calculate the binding rate constant ka (L/mol/s) and dissociation rate constant kd (l/s), and the dissociation constant KD (mol/L) was calculated from these values. […] Regarding such interactions, KD values were calculated using the following 1:1 binding model described in BIACORE® T100 Software Handbook BR1006-48 Edition AE.
(§2) The resultant variants were expressed using M103202L889-SK1 as light chain and their affinity to human and cynoFcγRs were evaluated (Table 20).
On the technique in general: Surface plasmon resonance follows binding to a sensor surface in real time, without labels.

Experiment [2] deals with T2, cynomolgus monkey FcγRIIb extracellular domain with C-terminal His-tag (cynomolgus monkey).
T2 construct: Expressed in FreeStyle 293 cells and purified; also called cyno FcγRIIb; cynoFcγRIIb; not shown: C-terminal His-tag
T2 chain: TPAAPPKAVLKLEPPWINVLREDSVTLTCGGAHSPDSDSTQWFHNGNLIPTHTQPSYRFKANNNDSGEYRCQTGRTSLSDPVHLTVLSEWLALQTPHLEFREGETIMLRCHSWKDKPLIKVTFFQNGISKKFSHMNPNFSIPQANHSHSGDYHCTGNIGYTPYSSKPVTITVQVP
The experiment is described as above. The method, then:
as §1, §2

The target of experiment [3] is T3, human FcγRIIaH extracellular domain with C-terminal His-tag (human, UniProt P12318 34-217).
T3 construct: Expressed in FreeStyle 293 cells and purified; also called human FcγRIIa (type H); FcgRIIaH; not shown: C-terminal His-tag
T3 sequence: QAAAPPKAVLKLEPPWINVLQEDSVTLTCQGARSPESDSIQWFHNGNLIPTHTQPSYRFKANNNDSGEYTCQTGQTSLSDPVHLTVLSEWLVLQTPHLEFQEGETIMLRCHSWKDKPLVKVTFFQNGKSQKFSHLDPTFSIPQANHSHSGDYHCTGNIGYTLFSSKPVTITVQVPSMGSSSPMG
Described as above. On the procedure: as §1, §2

Experiment [4] addresses T4, human FcγRIIb extracellular domain with C-terminal His-tag (human, UniProt P31994 43-217).
T4 construct: Expressed in FreeStyle 293 cells and purified; also called humanFcgRIIb; not shown: C-terminal His-tag
T4 sequence: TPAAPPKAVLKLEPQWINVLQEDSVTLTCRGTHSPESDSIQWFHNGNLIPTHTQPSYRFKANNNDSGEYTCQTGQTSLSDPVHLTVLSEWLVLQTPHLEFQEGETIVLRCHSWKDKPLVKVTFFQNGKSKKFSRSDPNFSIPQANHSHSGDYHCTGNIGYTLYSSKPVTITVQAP
Described as above. On the procedure: as §1, §2

Experiment [5] concerns the target T1, cynomolgus monkey FcγRIIa1 …. Briefly: SPR (Biacore), antibody captured on chip, FcgR extracellular domain as analyte, 25 C. The method, then: as §1, §2
The target in experiment [6] is T5, cynomolgus monkey FcγRIIa2 extracellular domain with C-terminal His-tag (cynomolgus monkey).
T5 construct: Expressed in FreeStyle 293 cells and purified; also called cyno FcγRIIa2; cynoFcgRIIa2; not shown: C-terminal His-tag
T5 chain: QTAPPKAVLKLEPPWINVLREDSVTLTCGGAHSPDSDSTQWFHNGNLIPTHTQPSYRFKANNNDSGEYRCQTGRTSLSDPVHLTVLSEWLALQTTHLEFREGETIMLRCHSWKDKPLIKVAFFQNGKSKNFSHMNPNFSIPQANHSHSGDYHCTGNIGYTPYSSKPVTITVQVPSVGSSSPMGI
The description is as above. The method, then: as §1, §2

For experiment [7], the target named is T6, cynomolgus monkey FcγRIIIaS extracellular domain with C-terminal His-tag (cynomolgus monkey, UniProt Q8SPW2 21-206 at identity 1.00)).
T6 construct: Expressed in FreeStyle 293 cells and purified; also called cyno FcγRIIIaS; cynoFcγRIIIaS; not shown: C-terminal His-tag
T6 chain: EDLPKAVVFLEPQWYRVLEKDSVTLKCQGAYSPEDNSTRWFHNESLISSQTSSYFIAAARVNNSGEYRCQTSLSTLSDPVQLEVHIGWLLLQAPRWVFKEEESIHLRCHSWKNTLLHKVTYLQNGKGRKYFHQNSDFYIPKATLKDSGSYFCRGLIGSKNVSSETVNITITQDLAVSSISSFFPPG
The experiment is described as above. On the procedure: as §1, §2

Experiment [8] deals with T3, human FcγRIIaH extracellular domain …. Described as above. The method, then:
as §1, §2

Experiment [9] deals with T7, human FcγRIIIaV extracellular domain with C-terminal His-tag (human, UniProt P08637 17-208).
T7 construct: Expressed in FreeStyle 293 cells and purified; also called FcgRIIIaV; not shown: C-terminal His-tag
T7 sequence (P08637 17-208 F176V): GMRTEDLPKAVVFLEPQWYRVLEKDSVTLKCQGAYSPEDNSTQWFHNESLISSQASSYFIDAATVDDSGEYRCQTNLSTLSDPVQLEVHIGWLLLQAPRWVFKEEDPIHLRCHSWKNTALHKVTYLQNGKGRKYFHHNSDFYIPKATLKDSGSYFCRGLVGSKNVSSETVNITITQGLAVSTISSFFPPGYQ
The description is as above. On the procedure:
as §1, §2

B1: MS_M103205H795-SG1/M103202L889-SK1 (antibody, human IgG1, kappa)
heavy: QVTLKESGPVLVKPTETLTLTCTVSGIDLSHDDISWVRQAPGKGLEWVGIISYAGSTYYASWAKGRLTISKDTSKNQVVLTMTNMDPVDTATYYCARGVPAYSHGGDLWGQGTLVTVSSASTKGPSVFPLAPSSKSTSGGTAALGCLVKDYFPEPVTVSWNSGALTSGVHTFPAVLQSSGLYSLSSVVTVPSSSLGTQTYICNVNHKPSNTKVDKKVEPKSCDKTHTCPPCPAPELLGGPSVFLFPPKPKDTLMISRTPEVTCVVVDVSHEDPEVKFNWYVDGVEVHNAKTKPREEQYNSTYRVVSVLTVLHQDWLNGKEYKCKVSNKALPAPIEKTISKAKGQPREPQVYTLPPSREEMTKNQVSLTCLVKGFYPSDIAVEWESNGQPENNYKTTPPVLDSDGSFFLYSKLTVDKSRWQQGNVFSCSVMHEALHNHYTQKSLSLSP
light: DIVMTQSPATLSLSPGERATLSCTSSQSVYHANWLSWFQQKPGQPPKLLIYWASTLAYGVPSRFSGSGSGTDFTLTISSLQPEDAATYYCAGGYGGGRYAFGQGTKVEIKRTVAAPSVFIFPPSDEQLKSGTASVVCLLNNFYPREAKVQWKVDNALQSGNSQESVTEQDSKDSTYSLSSTLTLSKADYEKHKVYACEVTHQGLSSPVTKSFNRGEC
notes: Anti-latent myostatin IgG; also called MS1032LO06-SG1
Turning to B1, the “KD fold (SG1 = 1)” value in [1], in experiment [2], in experiment [3] and in [4] was 1 fold throughout. Further, the Kd (in general, a measure of binding affinity in units of concentration) in experiment [5] worked out at 3.2 µM; in experiment [6] it was 5.1 µM; in experiment [7], 0.36 µM; in experiment [8], 0.69 µM; in [9], 0.81 µM.

B2: M103205H795-MY052 / M103202L889-SK1 (antibody, human IgG1, kappa)
heavy: QVTLKESGPVLVKPTETLTLTCTVSGIDLSHDDISWVRQAPGKGLEWVGIISYAGSTYYASWAKGRLTISKDTSKNQVVLTMTNMDPVDTATYYCARGVPAYSHGGDLWGQGTLVTVSSASTKGPSVFPLAPSSKSTSGGTAALGCLVKDYFPEPVTVSWNSGALTSGVHTFPAVLQSSGLYSLSSVVTVPSSSLGTQTYICNVNHKPSNTKVDKKVEPKSCDKTHTCPPCPAPELLNGPSVFLFPPKPKDTLMISRTPEVTCVVVDVSEEDPEVKFNWYVDGVEVHNAKTKPREEQYNSTYRVVSVLTVLHQDWLNGKEYKCKVSNKALPAPIEKTISKAKGQPREPQVYTLPPSREEMTKNQVSLTCLVKGFYPSDIAVEWESNGQPENNYKTTPMVLDSDGSFFLYSKLTVDKSRWQQGNVFSCSVMHEALHNHYTQKSLSLSP
light: DIVMTQSPATLSLSPGERATLSCTSSQSVYHANWLSWFQQKPGQPPKLLIYWASTLAYGVPSRFSGSGSGTDFTLTISSLQPEDAATYYCAGGYGGGRYAFGQGTKVEIKRTVAAPSVFIFPPSDEQLKSGTASVVCLLNNFYPREAKVQWKVDNALQSGNSQESVTEQDSKDSTYSLSSTLTLSKADYEKHKVYACEVTHQGLSSPVTKSFNRGEC
notes: Fc variant of M103205H795-SG1, expressed with M103202L889-SK1 as light chain; parent of the position 396 variants
Turning to B2, the “KD fold (SG1 = 1)” value in experiment [1] was 2.3 fold; in experiment [2], 3.9 fold; in experiment [3] it was 0.8 fold; in [4], 6.4 fold. Also, the Kd in experiment [5] worked out at 1.4 µM; in experiment [6], 1.5 µM; in experiment [7], 1.5 µM; in experiment [8], 0.83 µM; in [9], 1.5 µM.

B3: M103205H795-MY168 / M103202L889-SK1 (antibody, human IgG1, kappa)
heavy: QVTLKESGPVLVKPTETLTLTCTVSGIDLSHDDISWVRQAPGKGLEWVGIISYAGSTYYASWAKGRLTISKDTSKNQVVLTMTNMDPVDTATYYCARGVPAYSHGGDLWGQGTLVTVSSASTKGPSVFPLAPSSKSTSGGTAALGCLVKDYFPEPVTVSWNSGALTSGVHTFPAVLQSSGLYSLSSVVTVPSSSLGTQTYICNVNHKPSNTKVDKKVEPKSCDKTHTCPPCPAPELLNGPSVFLFPPKPKDTLMISRTPEVTCVVVDVSEEDPEVKFNWYVDGVEVHNAKTKPREEQYNSTYRVVSVLTVLHQDWLNGKEYKCKVSNKALPAPIEKTISKAKGQPREPQVYTLPPSREEMTKNQVSLTCLVKGFYPSDIAVEWESNGQPENNYKTTPAVLDSDGSFFLYSKLTVDKSRWQQGNVFSCSVMHEALHNHYTQKSLSLSP
light: DIVMTQSPATLSLSPGERATLSCTSSQSVYHANWLSWFQQKPGQPPKLLIYWASTLAYGVPSRFSGSGSGTDFTLTISSLQPEDAATYYCAGGYGGGRYAFGQGTKVEIKRTVAAPSVFIFPPSDEQLKSGTASVVCLLNNFYPREAKVQWKVDNALQSGNSQESVTEQDSKDSTYSLSSTLTLSKADYEKHKVYACEVTHQGLSSPVTKSFNRGEC
notes: Position 396 variant derived from MY052, expressed with M103202L889-SK1 as light chain
Consider B3, for which the “KD fold (SG1 = 1)” value amounted to 1.5 fold in experiment [1], 1.5 fold in [2], 0.4 fold in [3] and 2.7 fold in experiment [4]. For the same molecule, the Kd in experiment [5] was found to be 2.2 µM; in [6] it was 2.5 µM; in experiment [7] it was 4.5 µM; in experiment [8], 1.6 µM; in experiment [9] it was 8.1 µM.

B4: M103205H795-MY169 / M103202L889-SK1 (antibody, human IgG1, kappa)
heavy: QVTLKESGPVLVKPTETLTLTCTVSGIDLSHDDISWVRQAPGKGLEWVGIISYAGSTYYASWAKGRLTISKDTSKNQVVLTMTNMDPVDTATYYCARGVPAYSHGGDLWGQGTLVTVSSASTKGPSVFPLAPSSKSTSGGTAALGCLVKDYFPEPVTVSWNSGALTSGVHTFPAVLQSSGLYSLSSVVTVPSSSLGTQTYICNVNHKPSNTKVDKKVEPKSCDKTHTCPPCPAPELLNGPSVFLFPPKPKDTLMISRTPEVTCVVVDVSEEDPEVKFNWYVDGVEVHNAKTKPREEQYNSTYRVVSVLTVLHQDWLNGKEYKCKVSNKALPAPIEKTISKAKGQPREPQVYTLPPSREEMTKNQVSLTCLVKGFYPSDIAVEWESNGQPENNYKTTPDVLDSDGSFFLYSKLTVDKSRWQQGNVFSCSVMHEALHNHYTQKSLSLSP
light: DIVMTQSPATLSLSPGERATLSCTSSQSVYHANWLSWFQQKPGQPPKLLIYWASTLAYGVPSRFSGSGSGTDFTLTISSLQPEDAATYYCAGGYGGGRYAFGQGTKVEIKRTVAAPSVFIFPPSDEQLKSGTASVVCLLNNFYPREAKVQWKVDNALQSGNSQESVTEQDSKDSTYSLSSTLTLSKADYEKHKVYACEVTHQGLSSPVTKSFNRGEC
notes: as for B3
Consider B4, for which the “KD fold (SG1 = 1)” value was found to be 1.4 fold in [1], 1.8 fold in experiment [2], 0.6 fold in experiment [3] and 3.5 fold in experiment [4]. In addition, the Kd in [5] was 2.3 µM; in experiment [6], 2.3 µM; in experiment [7], 3.5 µM; in [8], 1.2 µM; in experiment [9], 6.2 µM.

Values taken from patent publication US20200317768A1 (published 2020).
